The text below walks through data of the supplement of paper PMC10567573.

The data set can be described thus: protein stability index of a GFP-peptide fusion (GPS, HEK-293T) (PSI 1-6); higher = more stable.
The mark [1] stands for this setting: treatment: DMSO, c terminus: a fixed tail appended.
Where [2] appears, read: treatment: MLN4924 1 uM, 8 h, c terminus: a fixed tail appended.
The mark [3] stands for this setting: treatment: DMSO, c terminus: native.
Setting [4] is: treatment: MLN4924 1 uM, 8 h, c terminus: native.

± gives the standard deviation.
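Also: 24-mer peptide tiles fused after GFP, lentivirally expressed, FACS-sorted into six equal bins by GFP/DsRed ratio, decoded by Illumina sequencing, PSI is the read-weighted mean bin number.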

In the case of SGRDRVGRQERGLPPSMERGYPPP [RBMX], the protein stability index by setting is: under setting [1], 4 ± 0.38; under setting [2], 3.94 ± 0.19.

For the sequence LKLLNHPNVIEYYENFLEDKALMI [NEK8], the protein stability index amounted to 2.39 ± 0.4 under setting [1] and 2.34 ± 0.23 under setting [2].

For the sequence NDPEKNFLTTAIRPHGIFGPRDPQ [NSDHL], the protein stability index by setting is: under setting [1], 4.24 ± 0.3; under setting [2], 4.24 ± 0.29.

For RFLRAYREGALRAALQRSLAAALA [TRADD], the protein stability index runs as follows: under setting [1], 2.27 ± 0.062; under setting [2], 2.32 ± 0.18.

In the case of MMCVAERTYKQRFLFAKLFSHITS [PHTF1], the protein stability index runs as follows: under setting [1], 1.79 ± 0.71; under setting [2], 2.24 ± 0.47.

For YEGGHIKGAVNLHMEEEVEDFLLK [CDC25A], the protein stability index by setting is: under setting [1], 4.6 ± 0.42; under setting [2], 4.51 ± 0.076.

As for PPSSPRTLRLEKLGHPALSQEEGK [PPFIA4], the protein stability index reads like this: under setting [1], 5 ± 0.15; under setting [2], 5.19 ± 0.31.

Turning to GSACSLLCCCGRDPSEEHSLLVN [MCOLN1], the protein stability index by setting is: under setting [3], 2.3 ± 0.39; under setting [4], 2.27 ± 0.38.

For the sequence QKHTEVETVDLVLKLKNKLLQADR [DENND6A], the protein stability index was found to be 3.49 ± 0.33 under setting [1] and 3.45 ± 0.32 under setting [2].

The sequence IVVGRLKVALEPQLWELGKVLRKA [LPCAT4] showed a protein stability index under setting [1] of 2.31 ± 0.37 and a protein stability index under setting [2] of 2.61 ± 0.49.

Turning to KKEELLFDDGDDIMATLGFGDSPK [FBF1], the protein stability index was 4.54 ± 0.2 under setting [1] and 4.59 ± 0.27 under setting [2].

For PRVEYIDRPRCCLRGKECCINRFQ [BTBD1], the protein stability index was 2.42 ± 0.13 under setting [1] and 2.61 ± 0.28 under setting [2].

In the case of ADGARSAVVAAGGGSSGQVTSNGS [CLPTM1], the protein stability index runs as follows: under setting [1], 5.3 ± 0.065; under setting [2], 5.09 ± 0.14.

VGTMVGADILAGREDNSGSDVLIG [SLC35F2]: the protein stability index is 4.79 ± 0.26 under setting [1] and 4.55 ± 0.22 under setting [2].

RQLLCLIDYYESKIRKIHTQRQYK [CEP70]: the protein stability index was determined as 2.44 ± 0.37 under setting [1] and 2.95 ± 0.25 under setting [2].

Consider EHGEKIYFFCENDAEFLCVFCREG [TRIM15], for which the protein stability index runs as follows: under setting [1], 2.36 ± 0.082; under setting [2], 2.53 ± 0.42.

Regarding ETFRQQFRQFGYQDSPGPHEALSR [ZNF396], the protein stability index is 3.34 ± 0.22 under setting [1] and 3.68 ± 0.043 under setting [2].

Turning to SWYHWKGFEFSVPFTEMKLRPRNF [TNXB], the protein stability index was 2.47 ± 0.81 under setting [1] and 3.15 ± 0.53 under setting [2].

In the case of RSEAVAQLWGQKKKNSNMTYEKLS [ELF3], the protein stability index under setting [1] is 3.52 ± 0.21 and the protein stability index under setting [2] amounted to 3.8 ± 0.18.

For NTLQTYIRCRHPPPGSHLLYAKMI [VDR], the protein stability index came out at 2.21 ± 0.15 under setting [1] and 2.33 ± 0.25 under setting [2].

In the case of HSSSRDSHLSNGLDPVAETAIRQL [C2CD2L], the protein stability index was found to be 4.42 ± 0.35 under setting [1] and 4.53 ± 0.18 under setting [2].

As for FVLNAAQCSMPLHVAPLLAAAGLH [NR2F2], the protein stability index by setting is: under setting [1], 3.13 ± 0.25; under setting [2], 2.49 ± 0.48.

Take ENYHKLRRSSSKCIHDHHCGSQLS [NETO1]: the protein stability index by setting is: under setting [1], 3.1 ± 0.27; under setting [2], 3.26 ± 0.4.

For the sequence ILELLVLEQFLAILPKELQAWVQK [ZNF396], the protein stability index came to 2.67 ± 0.24 under setting [1] and 2.65 ± 0.5 under setting [2].

Turning to ATEQAATQESTFQELCEGLLEESD [NOP53], the protein stability index was found to be 5.61 ± 0.19 under setting [1] and 5.58 ± 0.12 under setting [2].

As to LQYILAQIGFSVGLGNIWRFPYLC [SLC6A17], the protein stability index turned out to be 2.27 ± 0.16 under setting [1] and 2.88 ± 0.31 under setting [2].

Take AIQLLSRMEYVHSKNLIYRDVKPE [CSNK1G1]: the protein stability index reads like this: under setting [1], 2.28 ± 0.2; under setting [2], 2.33 ± 0.31.

KAVSEMRQKIWNNMPKDHPVSCCL [DYNC2LI1]: the protein stability index is 2.41 ± 0.21 under setting [1] and 2.46 ± 0.29 under setting [2].

Regarding QHESGQSSSRGSSHCDSPSPQEDG [BNIP3L], the protein stability index is 5.62 ± 0.36 under setting [1] and 5.5 ± 0.16 under setting [2].

Take HPTYEEKLKLVALHKQVLMGPYNP [ACBD3]: the protein stability index is, setting by setting: under setting [1], 2.6 ± 0.34; under setting [2], 2.69 ± 0.37.

For the sequence CQHLSSSAEELRKARSNSTLSKSE [KCNA3], the protein stability index under setting [1] came to 5.01 ± 0.33 and the protein stability index under setting [2] turned out to be 4.75 ± 0.26.

Sequence FQNRRMKHKRQMQDPQLHSPFSGS [VENTX] yielded a protein stability index under setting [1] of 3.3 ± 0.38 and a protein stability index under setting [2] of 3.48 ± 0.31.

On to RRYVARLEMRRRCTWSIFQSIEYA [PPEF2], for which the protein stability index reads like this: under setting [1], 1.86 ± 0.94; under setting [2], 2.26 ± 0.14.

As for DDDFSIHAAHVVCRELGYVEAKSW [LOXL2], the protein stability index runs as follows: under setting [1], 2.72 ± 0.24; under setting [2], 2.83 ± 0.33.

SLGQDLRRLRQELLKTEALKRQAQ [DAPK3]: the protein stability index reads like this: under setting [1], 3.09 ± 0.59; under setting [2], 2.96 ± 0.14.

As to QQFKQYSRHVTTRAALTYTSLEIT [M1AP], the protein stability index is 2.44 ± 0.18 under setting [1] and 2.6 ± 0.3 under setting [2].

As to EKSGFSQHQNKSPPKVKAEDGMQC [DLC1], the protein stability index is, setting by setting: under setting [1], 5.19 ± 0.33; under setting [2], 5.22 ± 0.13.

On to QEAAQLDMLLEKLPQVAEEISGPL [FLOT1], for which the protein stability index is, setting by setting: under setting [1], 4.81 ± 0.29; under setting [2], 4.76 ± 0.18.

Consider DIFALALTVVCAAGAEPLPRNGDQ [WEE1], for which the protein stability index came out at 2.77 ± 0.22 under setting [1] and 2.54 ± 0.61 under setting [2].

Turning to REEEEQVRAHAPRGNAPPRGKGL [KCNG1], the protein stability index was 3.15 ± 1.3 under setting [3] and 3.68 ± 0.65 under setting [4].

EDLLLPGACPGADEAGGGAEGDSW [WEE1] returned a protein stability index under setting [1] of 5.53 ± 0.12 and a protein stability index under setting [2] of 5.58 ± 0.22.

Take SNFDDFPESDILQPVPNTTEPDYK [STK38L]: the protein stability index runs as follows: under setting [1], 5.59 ± 0.25; under setting [2], 5.24 ± 0.29.

Regarding EDVARPTQRLWDFTQSGPIVSRAT [GALNT9], the protein stability index was found to be 3.99 ± 0.056 under setting [1] and 3.87 ± 0.33 under setting [2].

Take SGRNGEVSLDISPDLPFQIKPSEN [PCDHGC5]: the protein stability index under setting [1] turned out to be 4.47 ± 0.25 and the protein stability index under setting [2] was 4.56 ± 0.26.

Consider TRLFHDSAVTSVRILQDEQYLMAS [DCAF4], for which the protein stability index is, setting by setting: under setting [1], 2.76 ± 0.18; under setting [2], 2.88 ± 0.25.

Regarding RTKQVLHTFKTRFTQPLLPAFTVW [FSD1], the protein stability index under setting [1] came to 2.53 ± 0.32 and the protein stability index under setting [2] stood at 2.44 ± 0.46.

Turning to CDYSQYFKTIEELRDKIMATTIDN [KRT15], the protein stability index by setting is: under setting [1], 3.28 ± 0.12; under setting [2], 3.22 ± 0.17.

The sequence SECGKAFPRKSELTEHQRIHTGIK [ZNF649] gave a protein stability index under setting [1] of 4.07 ± 0.19 and a protein stability index under setting [2] of 4.2 ± 0.062.

As for EKIQQDADSVITVGRGEVVTVRVP [ACBD3], the protein stability index is, setting by setting: under setting [1], 4.55 ± 0.16; under setting [2], 4.63 ± 0.14.

Take KWLPQQNAAHSLLSTNDKTIKLWK [PPP2R2C]: the protein stability index under setting [1] worked out at 2.88 ± 0.096 and the protein stability index under setting [2] came to 3.09 ± 0.32.

Sequence EEAPAVTAGLKIFEPPAPGEGNSS [TNFSF13B] yielded a protein stability index under setting [1] of 5.33 ± 0.23 and a protein stability index under setting [2] of 5.3 ± 0.14.

TRVPRAAIVFTDGRAQDDVSEWAS [MATN2]: the protein stability index under setting [1] worked out at 4.34 ± 0.36 and the protein stability index under setting [2] was 4.48 ± 0.45.

In turn, KDEEGRLRDPATITTLRVPVLRPM [PPP2R2B] had a protein stability index under setting [1] of 3.78 ± 0.23 and a protein stability index under setting [2] of 4.04 ± 0.26.

Turning to PGPTAPSPTSRPPWAVDPAFAERY [PDLIM7], the protein stability index came out at 2.2 ± 0.43 under setting [1] and 3.02 ± 0.36 under setting [2].

With KIKEKYIDQEELNKTKPIWTRNPD [HSP90AB1], the protein stability index is 3.71 ± 0.26 under setting [1] and 3.96 ± 0.24 under setting [2].

Take KSKKYSDVEVPASVTGYSFASDGD [ADD1]: the protein stability index stood at 4.68 ± 0.38 under setting [1] and 4.82 ± 0.22 under setting [2].

Take NDVRQAARSAASYMLFDPKDSVMQ [P3H4]: the protein stability index under setting [1] is 3.97 ± 0.12 and the protein stability index under setting [2] was 4.08 ± 0.39.

Take MKSCKNLKGGLQEVAEQLELERIG [CNOT7]: the protein stability index runs as follows: under setting [1], 4.39 ± 0.14; under setting [2], 4.47 ± 0.18.

Consider MKIFREKIEDFREEMWTFRGKIHA [CCDC70], for which the protein stability index runs as follows: under setting [1], 2.07 ± 0.26; under setting [2], 2.39 ± 0.43.

QGLIEDCQLALQQKRETLSPLCLI [KCTD13] gave a protein stability index under setting [1] of 2.47 ± 0.17 and a protein stability index under setting [2] of 2.64 ± 0.25.

On to SELQAYIAQCQDSPTSGKFRRGSG [MCOLN1], for which the protein stability index turned out to be 4.21 ± 0.075 under setting [1] and 4.31 ± 0.15 under setting [2].

Turning to CNQCGKCFIQSSHLIRHQITHTRE [ZNF8], the protein stability index was found to be 4.28 ± 0.19 under setting [1] and 4.47 ± 0.21 under setting [2].

For the sequence RDLEKQKEEVRAALEQREQDAVDQ [TRIM29], the protein stability index stood at 5.59 ± 0.08 under setting [1] and 5.66 ± 0.22 under setting [2].

As to IRIIDRALKEDFGFKHRLWVYSGR [PRIM1], the protein stability index is, setting by setting: under setting [1], 2.18 ± 0.51; under setting [2], 2.27 ± 0.51.

As for KECGKVFSQSAGLIQHQRIHKGEK [ZSCAN9], the protein stability index reads like this: under setting [1], 4.42 ± 0.16; under setting [2], 4.48 ± 0.3.

As for CDKKAMVWDMRSGQCVQAFETHES [GNB5], the protein stability index reads like this: under setting [1], 3.67 ± 0.27; under setting [2], 3.73 ± 0.29.

VVSTSGEQMKVYKCEHCRVLFLDH [IKZF1] showed a protein stability index under setting [1] of 2.69 ± 0.4 and a protein stability index under setting [2] of 2.3 ± 0.64.

Take QGSRHWQKLREESAARVVLTSLLA [DUSP5]: the protein stability index runs as follows: under setting [1], 2.31 ± 0.25; under setting [2], 2.44 ± 0.24.

YVDVVFANRPDPNTPMEETVRAMT [KCNAB2]: the protein stability index came out at 2.66 ± 0.34 under setting [1] and 3.09 ± 0.7 under setting [2].

DPSGVSGATVGRKSRRSRSESETS [C18orf25]: the protein stability index is, setting by setting: under setting [1], 5.69 ± 0.17; under setting [2], 5.42 ± 0.49.

For DQLLLNYAKKESDLNGAQIKLREY [LMNB1], the protein stability index by setting is: under setting [1], 3.617 ± 0.031; under setting [2], 3.71 ± 0.1.

On to IAKELSKTYQETPEIDMFLNVATF [ZBED1], for which the protein stability index was determined as 2.07 ± 0.24 under setting [1] and 2.12 ± 0.16 under setting [2].
